For 1 substance, Km and kcat results are on record in article PMC6333238, “The biosynthetic implications of late-stage condensation domain selectivity during glycopeptide antibiotic biosynthesis” (Chemical Science, 2018).

In this data set the test system is T1, N[C@H](C(=O)O)c1cc(O)cc(O)c1.
T1 construct: full-length final NRPS module C-A-PCP-X-TE, MBP fusion (pET-MBP-1c), Ni-NTA and SEC, E. coli, co-expressed with Tcp17; holo form (PCP loaded with phosphopantetheine by Sfp R4-4); with MbtH-like protein Tcp17
Nature of the data set: coupled PPi-release A-domain assay (PPi-PFK/aldolase/TPI/GDH, NADH). It counts as biochemical, Actinoplanes teichomyceticus. The settings on record: holo form, 0.5 mM ATP, 1 mM MgCl2, pH 7.4, 0.1 mM EDTA, enzyme 1 μM.

Chain of Tcp12 (Actinoplanes teichomyceticus) (chain, as listed by the source): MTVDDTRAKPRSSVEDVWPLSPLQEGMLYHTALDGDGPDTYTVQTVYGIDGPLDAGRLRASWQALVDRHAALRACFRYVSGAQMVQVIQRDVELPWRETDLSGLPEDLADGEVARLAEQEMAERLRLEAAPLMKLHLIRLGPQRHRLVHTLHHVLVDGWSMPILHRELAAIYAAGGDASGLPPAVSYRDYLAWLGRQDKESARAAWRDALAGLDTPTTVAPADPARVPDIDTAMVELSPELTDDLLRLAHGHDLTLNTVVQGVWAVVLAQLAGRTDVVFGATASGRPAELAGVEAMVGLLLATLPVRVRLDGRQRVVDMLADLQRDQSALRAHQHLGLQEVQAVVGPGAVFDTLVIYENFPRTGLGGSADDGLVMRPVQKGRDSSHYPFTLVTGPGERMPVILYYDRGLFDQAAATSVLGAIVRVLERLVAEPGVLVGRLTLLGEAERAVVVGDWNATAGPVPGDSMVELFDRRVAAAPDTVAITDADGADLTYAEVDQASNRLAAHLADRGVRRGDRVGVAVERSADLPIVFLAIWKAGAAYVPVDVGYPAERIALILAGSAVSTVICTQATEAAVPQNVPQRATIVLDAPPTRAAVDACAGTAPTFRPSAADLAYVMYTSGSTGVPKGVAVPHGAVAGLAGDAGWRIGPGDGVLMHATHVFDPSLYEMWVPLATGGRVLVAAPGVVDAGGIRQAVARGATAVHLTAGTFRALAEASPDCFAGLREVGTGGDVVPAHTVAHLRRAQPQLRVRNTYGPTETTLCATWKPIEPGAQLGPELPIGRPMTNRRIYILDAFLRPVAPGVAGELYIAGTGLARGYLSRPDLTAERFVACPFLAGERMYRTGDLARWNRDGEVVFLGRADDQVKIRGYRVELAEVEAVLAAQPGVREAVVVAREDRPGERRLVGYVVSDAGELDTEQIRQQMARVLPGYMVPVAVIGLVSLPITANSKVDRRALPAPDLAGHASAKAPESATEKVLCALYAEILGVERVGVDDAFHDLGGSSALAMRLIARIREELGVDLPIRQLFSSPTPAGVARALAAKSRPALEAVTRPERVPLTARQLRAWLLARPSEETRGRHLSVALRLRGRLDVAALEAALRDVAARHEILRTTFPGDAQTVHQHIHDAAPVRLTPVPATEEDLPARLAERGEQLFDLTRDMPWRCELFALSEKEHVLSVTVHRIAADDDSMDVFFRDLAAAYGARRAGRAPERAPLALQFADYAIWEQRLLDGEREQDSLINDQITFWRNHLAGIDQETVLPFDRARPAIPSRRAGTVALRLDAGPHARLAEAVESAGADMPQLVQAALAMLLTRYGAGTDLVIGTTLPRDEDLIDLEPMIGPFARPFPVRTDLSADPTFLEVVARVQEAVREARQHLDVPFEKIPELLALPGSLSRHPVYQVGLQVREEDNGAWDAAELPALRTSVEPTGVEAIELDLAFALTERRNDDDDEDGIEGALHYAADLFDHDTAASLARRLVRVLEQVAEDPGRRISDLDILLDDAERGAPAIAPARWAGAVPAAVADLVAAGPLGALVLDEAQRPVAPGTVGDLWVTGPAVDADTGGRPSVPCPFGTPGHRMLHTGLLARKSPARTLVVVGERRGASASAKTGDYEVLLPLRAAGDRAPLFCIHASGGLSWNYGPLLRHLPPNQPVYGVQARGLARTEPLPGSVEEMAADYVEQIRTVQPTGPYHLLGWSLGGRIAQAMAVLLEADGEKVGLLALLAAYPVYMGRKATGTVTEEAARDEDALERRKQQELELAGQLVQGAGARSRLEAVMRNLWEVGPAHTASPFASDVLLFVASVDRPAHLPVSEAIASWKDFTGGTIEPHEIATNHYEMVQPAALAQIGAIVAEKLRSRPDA

As for Tcp12 (Actinoplanes teichomyceticus), the Km (commonly the substrate concentration at which the rate is half of its maximum) amounted to 4 ± 0.1 µM; the kcat (usually the number of substrate molecules converted per active site and unit of time at saturation) stood at 0.01867 ± 0.000167 s⁻¹.
